Experimental data reported in the supplement of paper PMC9233669.
Variants at the floor of the assay were thinned out.

What was measured:
biotinyl-Ile-oxazolone = assay: self-aminoacylation, catalytic enhancement (BIO) (fold over background); higher = more active; k-Seq, kA / k0A0; sequences stand for … in GGGAAUGGAUCCACAUCUACGAAUUC…UUCACUGCAGACUUGACGAAGCUG
In short: (§1)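 Each biotinyl-aminoacyl-oxazolone, at 2–1250 μM, was incubated with mutagenized RNA pools (0.43 μM) carrying a 21-nt variable region. The 50 μL reactions contained HEPES/NaCl/KCl/MgCl2/CaCl2 buffer with 5% acetonitrile at pH 6.9–7.0 and ran for 90 minutes at room temperature. After streptavidin capture, RNA was measured by qPCR in triplicate and by Illumina sequencing, and catalytic enhancement was calculated as median kA over the uncatalyzed rate from a pseudo-first-order fit of per-sequence fraction reacted.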

biotinyl-Trp-oxazolone = assay: self-aminoacylation, catalytic enhancement (BWO) (fold over background); higher = more active; k-Seq, kA / k0A0; sequences stand for … in GGGAAUGGAUCCACAUCUACGAAUUC…UUCACUGCAGACUUGACGAAGCUG
In short: as §1

biotinyl-Leu-oxazolone = assay: self-aminoacylation, catalytic enhancement (BLO) (fold over background); higher = more active; k-Seq, kA / k0A0; sequences stand for … in GGGAAUGGAUCCACAUCUACGAAUUC…UUCACUGCAGACUUGACGAAGCUG
In short: as §1

biotinyl-Phe-oxazolone = assay: self-aminoacylation, catalytic enhancement (BFO) (fold over background); higher = more active; k-Seq, kA / k0A0; sequences stand for … in GGGAAUGGAUCCACAUCUACGAAUUC…UUCACUGCAGACUUGACGAAGCUG
In short: as §1

biotinyl-Val-oxazolone = assay: self-aminoacylation, catalytic enhancement (BVO) (fold over background); higher = more active; k-Seq, kA / k0A0; sequences stand for … in GGGAAUGGAUCCACAUCUACGAAUUC…UUCACUGCAGACUUGACGAAGCUG
In short: as §1

biotinyl-Met-oxazolone = assay: self-aminoacylation, catalytic enhancement (BMO) (fold over background); higher = more active; k-Seq, kA / k0A0; sequences stand for … in GGGAAUGGAUCCACAUCUACGAAUUC…UUCACUGCAGACUUGACGAAGCUG
In short: as §1

Row | Sequence | self-aminoacylation (biotinyl-Ile-oxazolone) | self-aminoacylation (biotinyl-Trp-oxazolone) | self-aminoacylation (biotinyl-Leu-oxazolone) | self-aminoacylation (biotinyl-Phe-oxazolone) | self-aminoacylation (biotinyl-Val-oxazolone) | self-aminoacylation (biotinyl-Met-oxazolone)
1 | AGUACCCUGGUCAUCGAGUGU [Fam2.1 aminoacylation ribozyme variant] | 5.14 | 11.7 | 13.6 | 29.9 | 5.27 | 14.2
2 | AUUCACCUAGGUCAUCGGGCC [Fam2.2 aminoacylation ribozyme variant] | 2.73 | 4.4 | 4.1 | 14.7 | 2.97 | 3.51
3 | CUGCUUCAAACAAUCGGUAUG [Fam1A.1 aminoacylation ribozyme variant] | 1.29 | 40.2 | 2.5 | 75.4 | 1.33 | 1.56
4 | CCACACUUCAAGCAAUCCGUA [Fam1B.1 aminoacylation ribozyme variant] | 0.876 | 0.837 | 0.927 | 0.597 | 1.04 | 0.668
5 | AAGUUUGCUUAUAGUCGCUAG [Fam3.1 aminoacylation ribozyme variant] | 0.884 | 0.61 | 0.628 | 1 | 0.646 | 0.705
6 | AUCCACCAAGGUCAUCGGGUG [Fam2.2 aminoacylation ribozyme variant] | 5.16 | 7.83 | 10.1 | 68.2 | 6.37 | 9.18
7 | AAGUUUGCGAAUAGUCGCAUG [Fam3.1 aminoacylation ribozyme variant] | 1.1 | 1 | 1.23 | 1.13 | 1.08 | 1.04
8 | AUUACCCUGGUCACCGCGUGA [Fam2.1 aminoacylation ribozyme variant] | 6.07 | 16.7 | 16.7 | 98.1 | 7.05 | 14.1
9 | AUUCAACUACGUCAUCGGGUG [Fam2.2 aminoacylation ribozyme variant] | 3.26 | 4.72 | 6.07 | 26 | 2.95 | 4.57
10 | UUACUUCAAACAAUCGGCCUG [Fam1A.1 aminoacylation ribozyme variant] | 2.69 | 43.2 | 4.03 | 95.3 | 2.3 | 2.35
11 | AACUUUGCUAAUUGUCGCAAG [Fam3.1 aminoacylation ribozyme variant] | 2.78 | 4.3 | 2.44 | 9.97 | 2.39 | 2.71
12 | AUUCAACUAGGUCACCGGGUG [Fam2.2 aminoacylation ribozyme variant] | 4.11 | 5.05 | 6.53 | 38.8 | 4.37 | 5.89
13 | GCACACUUCAAGCAUUCGGUC [Fam1B.1 aminoacylation ribozyme variant] | 2.57 | 3.5 | 2.17 | 4.96 | 2.59 | 2.09
14 | AUUCGUCUAGGUCAUCGGGUG [Fam2.2 aminoacylation ribozyme variant] | 4.9 | 6.11 | 5.27 | 43.2 | 4.85 | 4.96
15 | GUUACCCUGAUCAUCGAGUGA [Fam2.1 aminoacylation ribozyme variant] | 3.61 | 11.1 | 9.43 | 32.3 | 4.23 | 8.85
16 | CUACUCCAAACAAUCGAUCUG [Fam1A.1 aminoacylation ribozyme variant] | 0.704 | 0.384 | 0.533 | 0.831 | 0.661 | 0.48
17 | CUACGUCAAACAAUCGUUCUG [Fam1A.1 aminoacylation ribozyme variant] | 0.789 | 0.856 | 0.822 | 0.508 | 0.813 | 0.854
18 | GUUCACCUAGGUCAUCGGGUG [Fam2.2 aminoacylation ribozyme variant] | 13.7 | 20.1 | 32.5 | 180 | 12.5 | 25.5
19 | CCACACUUCAAGUAAUGGGUC [Fam1B.1 aminoacylation ribozyme variant] | 0.868 | 0.546 | 0.803 | 0.642 | 0.66 | 1.04
20 | AUUGCCCUGGGCAUCGAGUGA [Fam2.1 aminoacylation ribozyme variant] | 2.96 | 7.29 | 8.04 | 44.5 | 3.27 | 6.92
21 | CCACUUCAAACAAUCGUUCUG [Fam1A.1 aminoacylation ribozyme variant] | 0.582 | 1.09 | 0.653 | 2.21 | 0.674 | 0.479
